Reference: patent US20240398899A1 (priority 2021, published 2024)

What was measured:
[1] = system: SH-SY5Y neuronal cells; test: Sub (G0/G1) cell population by PI cell cycle assay against MPP+ iodide damage; assay type: cell-based, human; settings: MPP + Iodide (2 mM); for % Decrease in Apoptotic cells (wrt MPP + iodide): SubG0/G1
Description: After incubation as in Example 2a and 2b, cells were harvested by trypsinization and processed for Cell cycle assay as follows: Cell cycle reagent contains PI stain, which stains DNA of cells in different phases of cell cycle; Sub (G0/G1), G1, S, G2 and M. Cells in Sub (G0/G1) phase correspond to apoptotic cells.
Cells were gently harvested into pre-labelled centrifuge tubes and centrifuged at 450 g for 5 min, RT (low brake). The supernatants were removed carefully and discarded. 1 ml of 1×PBS was added to the pellet and resuspended gently to make homogenous suspension. Cells were centrifuged at 450 g for 5 min, RT (low brake). The supernatant was carefully removed leaving behind approximately 100 μl of PBS. Cells were resuspended gently yet thoroughly in residual PBS. The cells were fixed by adding Ice-cold 70% ethanol (100 μl) added dropwise into cells in each tube while vortexing at low speed Cells were stored at 4° C. for 24 h prior to staining.
Ethanol fixed cells were centrifuged at 450 g for 5 min, RT (low brake) the supernatant was carefully removed (not to touch the pellet) and discarded. 1 ml of 1×PBS was added into pellet and resuspended gently. Cells were incubated for 1 minute at RT. Cells were centrifuged at 450 g for 5 min, RT (low brake). (washing step) The supernatant was removed carefully leaving behind approx. 20 μl-50 μl of PBS. 200 μl of Cell Cycle reagent was added into each tube. Cells were resuspended gently and mixed. Cells were incubated for 30 min, RT, Dark. The stained samples were transferred into 96-well plates and acquired on flow cytometer (Guava technologies). Percentage of cells in Sub (G0/G1) phase were determined.
Percent inhibition in apoptotic cells=[(% Sub(G0/G1)cells in MPP+iodide alone) −(% Sub(G0/G1)cells in SEQ ID NO:1+MPP+iodide)/% Sub(G0/G1)cells in MPP+iodide alone]*100

[2] = system: Swiss albino mice; test: Passive avoidance test, scopolamine induced dementia; assay type: in vivo, Mus musculus (Swiss Albino)
Description: Required amount of recombinant lectin protein having SEQ ID NO: 1 was diluted in sterile Tris Buffered Saline (TBS) to achieve desired final concentration, i.e 0.1 mg/mL, 0.05 mg/mL, 0.025 mg/mL, at the doses of 0.5 mg/kg, 0.25 mg/kg and 0.125 mg/kg respectively. Formulation was prepared fresh daily.
TBS buffer and 0.5% CMC were used as a vehicle for preparation of test item, recombinant Lectin having SEQ ID NO: 1 and reference item formulation, respectively Male Mus musculus (Swiss Albino) aged between 8-10 weeks procured from GENTOX Bio services Pvt Ltd, Hyderabad. Animals were classified into 6 groups and acclimatized for two weeks. Animals were identified by cage labelling and tail marking and were randomized on the basis of their body weight.
Healthy male Swiss albino mice (n=48) were selected and randomized based on body weight (n=8 per Group) into 6 groups as mentioned in table no-1. The control group G1 was treated intravenously with vehicle daily till the experiment completion. Group G2 was considered as negative control and treated with vehicle. […] Group G4, G5 &G6 animals were treated with the test item recombinant lectin protein having SEQ ID NO: 1 at the dose of 0.5 mg/kg, 0.25 mg/kg and 0.125 mg/kg, respectively. All the test items were given intravenously (i.v) daily at the dose volume of 5 ml/kg for 14 Days. The body weight was recorded daily throughout the experimental period. […] One hour after the last dose of test items (on Day 14) all the animals were injected with scopolamine hydrobromide at the dose of 2.5 mg/kg, i.p., except the normal control group G1. Passive avoidance test was conducted 30 min after scopolamine injection.
This learning and memory test were performed in two chambers, which has square boxes, identical size, juxtaposed as illuminated and dark. A lamp was placed above one chamber for illumination. Each test involved two separate trials, a training trial and a test trial.
For the training trial, the mice were initially placed in the illuminated chamber. When the mice entered the dark chamber, an electrical shock (0.5 mA) for 3 sec. was delivered through stainless steel rods. The latency times once the mice entered from light compartment to the dark compartment was recorded using in-build timer. A test trial was performed 24 h following the training trial, and latency times to re-enter the dark chamber was measured up to 5 min

B1: SEQ ID NO: 1: variant of the S. rolfsii lectin amino acid sequence (reported as Rec-2 in WO2010/095143) (protein)
chain: TYKITVRVYQTNPDAFFHPVEKTVWKYANGGTWTITDDQHVLTMGGSGTSGTLRFHADNGESFTATFGVHNYKRWCDIVTNLAADETGMVINQQYYSQKNREEARERQLSNYQVKNAKGRNFQIVYTEAEGNDLHANLIIG
With B1 the “% Apoptotic cells (SubG0/G1)” value ([1]; 0.001 μg/mL) was 2.7%, the “% Decrease in Apoptotic cells (wrt MPP + iodide)” value (“% Decrease in Apoptotic cells” below) ([1]; 0.001 μg/mL) was 18.8% and the “% Apoptotic cells (SubG0/G1)” value ([1]; 0.01 μg/mL) was 2.2%. The “% Decrease in Apoptotic cells” value ([1]; 0.01 μg/mL) was 33.5%, the “% Apoptotic cells (SubG0/G1)” value ([1]; 0.05 μg/mL) was 2.4% and the “% Decrease in Apoptotic cells” value ([1]; 0.05 μg/mL) was 29.9%. For the same molecule, the “% Apoptotic cells (SubG0/G1)” value ([1]; 0.1 μg/mL) was 2.4%, the “% Decrease in Apoptotic cells” value ([1]; 0.1 μg/mL) was 27.7% and the “% Apoptotic cells (SubG0/G1)” value ([1]; 1 μg/mL) was 2.2%. For the same molecule, the “% Decrease in Apoptotic cells” value ([1]; 1 μg/mL) was 35%, the “% increase in Transfer Latency Time” value ([2]; G4: 0.5 mg/kg i.v. qdx14, compared with G2 (scopolamine)) was 33.2% and the “Mean Transfer Latency Time” value ([2]; G4: 0.5 mg/kg i.v. qdx14, scopolamine 2.5 mg/kg i.p.) was 85.26 s. For the same molecule, the “Mean Transfer Latency Time” value ([2]; G4: 0.5 mg/kg i.v. qdx14, scopolamine 2.5 mg/kg i.p., listed as SEQ ID NO 1) was 85.26 ± 6.52 s, the “% increase in Transfer Latency Time” value ([2]; G5: 0.25 mg/kg i.v. qdx14, compared with G2 (scopolamine)) was 29.4% and the “Mean Transfer Latency Time” value ([2]; G5: 0.25 mg/kg i.v. qdx14, scopolamine 2.5 mg/kg i.p.) was 80.58 s. The “Mean Transfer Latency Time” value ([2]; G5: 0.25 mg/kg i.v. qdx14, scopolamine 2.5 mg/kg i.p., listed as SEQ ID NO 1) was 80.58 ± 9.08 s, the “% increase in Transfer Latency Time” value ([2]; G6: 0.125 mg/kg i.v. qdx14, compared with G2 (scopolamine)) was 24.9% and the “Mean Transfer Latency Time” value ([2]; G6: 0.125 mg/kg i.v. qdx14, scopolamine 2.5 mg/kg i.p.) was 75.81 s. The “Mean Transfer Latency Time” value ([2]; G6: 0.125 mg/kg i.v. qdx14, scopolamine 2.5 mg/kg i.p., listed as SEQ ID NO 1) was 75.81 ± 7.75 s.
